# Test: soluble on expression in E. coli; label from the status in PepcDB or PDB records
row,Sequence,soluble on expression in E. coli
1,MAHHHHHHMAVASKGRIADVNQEELTKIGPKIDDVLSICLASFDSLRDMAFKFQYEQAAEKAAYQSGETKPDPMTQLMHVLQRMVDLTLGTAKAVYDQTLLEWRRRKGEGDADSPASQLASSQSMTSPEVLRNSSVEDFAAGSVAWIERGSHLSLLSLEVLSSVLLAHHYLRRDLQKYMLDVNVLDYLEKVFSMERDHELCYFPEGFKTECMRLIANLTHNNVDVNAALVERDTFLFNILSATQIDEENPGMVEWAEFALRNICESSAAAREKIRKLAPQGVTDQSREILAGRCSYSFSSTGKVQLHTQKPPLH,soluble
2,QVRLVESGGGVVQPGGSLRLSCEGSGFKFGDHGIHWVRQAPGEGLQWLTVISSDGTDERYTDSVKGRFTISRDNSKNTMSLQMNNLRPEDMGLYYCARDGKCGGGRCYSGLLDYWGQGTMVTVSSASFKGPSVFPLAPSSKSTSGGTAALGCLVKDYFPEPVTVSWNSGALTSGVHTFPAVLQSSGLYSLSSVVTVPSSSLGTQTYICNVNHKPSNTKVDKKVEPKSCDKTHTGLEHHHHHH,soluble
3,MGSDKIHHHHHHMTTAQQTENKGQQTRTVAELVEDIKALTTEIQELYCLDQIPWVLGVSWGKDSSTVLQLVWNAIAALPPEKRTKTVYVITTDTQVENPVVSAWVRKSLQNLKIAAKEQGMPIDPHLLQPVIQDTFWVNLIGKGYPAPRNQFRWCTPRLKINPANQFIREIVRANGETILVLGTRKAESSKRAATMKKHQVDRVRDRLSPNASLPNSLIYTPIEDWSNNDVWIYLNQWNNPWGQSNKELFTMYRGATADNECPLVVDTSTPSCGDSRFGCWVCTLVSKDKSMEAMIQNDEEKEWMQPLLDIRNELDIKDDRDKRDFRRIWGEVQLFERNKDGKISVDPIPGPYTKYWREYWLKRLLEAQIKTRRTAPENMRDITLITLEEMSEIRRIWLEDKHEFDDSLPRIYQEVTGEEFQDPRPGADYSLLGRDEWIVLEEICEGDAMHLELMAKLLDTERQYRKKTRRVGIYETLEKCFNTSSRSPEDAIKNARLKRELSEAVSQGDVAKVKQMTLGDVAAINEVDEGQSESDEEVTWASMKFKKENSEE,not soluble
4,MTEAAKKSTKKPVDDGNFDKEIISRWPDLELSQTRFMLNHPEVDSSVKEAKLEKLQETIKEFDMAPFYELVCADFKIVVDATQLAAMKAANQKKIDEITAEVEDAEKNLGESEVRQGLLRKFEYYCQIGDKDNALKAYTATYEKTVGMGYRIDVVFAMIRVGLFFLDHHLINKFITKAKELMEQGGDWERKNRLRSYEALYRMSVRDFAGAADLFLEAVPTFGSYELMTYENLILYTVITTTFALDRPDLRTKVIRCNEVQEQLTGGGLNGTLIPVREYLESYYDCHYDRFFIQLAALESERFKFDRYLSPHFNYYSRGMRHRAYEQFLTPYKTVRIDMMAKDFGVSRAFIDRELHRLIATGQLQCRIDAVNGVIEVNHRDSKNHLYKAVIKDGDILLNRIQKLARVINA,not soluble
5,MAHHHHHHMLQWEWPTSLCAERRELIRAAVERAIRNSMAEGSDGQIRGTVNVDELNLGSNPPEVTLSGIRMLSAERTVIMVKVRYTGDFFIRLSGLEVNLDMVGSGAEEADNNFALPFFCPFEMTLRDILIDGMVAIEILQELEENVQWGKCADVPVAPLATTVRSRKNTNGMRPPCRAGTPSTRHRSGYGVLLGGGGRGAMRLPGVLDSIDGSLSSVDMEGASEGHPRHSLRVRNVSPPFFDILSTKVLVKQRVVKMQLFGDPLKSFRVLSNFGSVQGADCKAEQTIRKLIKPAIEQLIEEGIIFNI,not soluble
6,MSLTPTVMVVDESRITFLAVKNALEKDGFNVIWAKNEQEAFTFLRREKIDLVFVDVFEGEESLNLIRRIREEFPDTKVAVLSAYVDKDLIINSVKAGAVDYILKPFRLDYLLERVKKIISSTPRVTVSLRKNIEDLEITLKFEDIVRKEIKRSNRTGSRFCVMYVKFEDIMRDYETIKKFFRETDYVLPISASEYLFVLTLTGKHGIEAVTRRMKEKLSERFSYTYVCYPDDGKTYEEIILTLKDRMAKPRGEGHHHHHH,soluble
7,MHALVQLRGEVNMHTDIQDTLEMLNIHHVNHCTLVPETDAYRGMVAKVNDFVAFGEPSQETLETVLATRAEPLEGDADVDDEWVAEHTDYDDISGLAFALLSEETTLREQGLSPTLRLHPPRGGHDGVKHPVKEGGQLGKHDTEGIDDLLEAMR,soluble
8,HLQTKTAAKTGEGLSESAIHRTFQQLASGFDTIYGGFGQAPKFPMPHMLMYLLRYDHNTGQENALYNVTKTLDSMANGGIYDHIGYGFARYSTDDEWLVPHFEKMLYDNALLLTAYTEAYQVTQNSRYKEICEQIITFIQREMTHEDGSFFSALDADTEGEEGKYYVWSKEEILKTLGDDLGTLYCQVYDITEEGNFEGKNIPNLIHTKREQIKEDAGLTEKELSLKLEDARQQLLKTREERTYPHVDDKVLTSWNALMIAGLAKAAKVYQEPKYLSLAKDAITFIENKLIIDGRVMVRYRDGEVKNKGFIDDYAFLLWAYLDLYEASFDLSYLQKAKKLTDDMISLFWDEEHGGFYFTGHDAEALIVREKEV,not soluble
9,AHHHHHHGSDCGKDYCVKDLSLAEEGWKKIDWVSRFMPVLQYIKREFEEKKPFKGVRIAATLHLEMKTAFLLLTLKAGGAEVSAAASNPLSTQDDVVAALAKAGVKVYAIRGESREQYYEFMHKALDIRPNIIIDDGADMISLVHKERQEMLDEIWGGSEETTTGVIRLRAMEKAGILKFPVIAVNDSYMKYLFDNRYGTGQSTWDGIMRATNLLIAGKNVVVVGYGWCGRGIAMRARGLGATVIVVEVDPIKALEARMDGFLVMDMKEAAKIGDIFVTATGNIKCIRREHFELMKDGAIMANAGHFDVEIWKPDLEKLAVEINNPRPNVTEYKLKDGRRLYLLADGRLVNLVAADGHPAEIMDMSFALQAKAAEYIKDNHERLEPKVYILPREIDEMVARIKLESMGIKIEELTEEQKKYLESWEHGT,soluble
10,MELYDTEEQQVEAIKDWWKENGKAVIFGAVIGLGGLFGWRYYQDSVVAAQEAASQSYSKAMDALQAKGIESEGTIQTFIDANKETEYAVLAAMQLAKAQVDAGQLDEALAQLEWAKGATKDAALKPLLTFRVARLQAEQGQFDDALTQLTSIQEKSWAGRVAELRGDILMRKGDSAAAYAAYTEAQQAEDASQTLQMKLDDLAK,not soluble
11,MNIVLMGLPGAGKGTQAERIVEKYGIPHISTGDMFRAAMKEETPLGLEAKSYIDKGELVPDEVTIGIVRERLSKSDCERGFLLDGFPRTVAQAEALEEILEEMGRPIDYVINIQVDKEELMERLTGRRICSVCGTTYHLVFNPPKTPGICDKDGGELYQRADDNEETVTKRLEVNMKQTAPLLAFYDSKEVLVNVNGQQDIQDVFADVKVILGGLKQ,soluble
12,AIAGNTTSERVSGERHGAKAARAEGGGHGPGKEHKIMVGSTDDPSVFSLPDSKLPGDKEFVPWQQDLDDSVKPAQQARPTVIRWSEGGKEVFISGSFNNWSTKIPLIKSHNDFVAILDLPEGEHQYKFFVDGQWVHDPSEPVVTSQLGTINNLIHVKKSDFEVFDALKLDSMESSETSCRDLSSSPPGPYGQEMYVFRSEERFKSPPILPPHLLQVILNKDTNISCDPALLPEPNHVMLNHLYALSIKDSVMVLSATHRYKKKYVTTLLYKPI,soluble
13,MTGEKLLYIETFGCQMNVSDSEKVASLLRGEGYSQTPDSSEADLIIVNTCSVRAKAEHKVYSYLGRFRKLKRDRRLLLGVGGCVAQQEGERLLKRVPWLDLVFGTHNLHLLPEMVRAAEQGERRAAVDFIDNEARLDLFPQADEGGGVTRFVTVMQGCDNFCSYCIVPYVRGREISRRSVEIIGEIRSAVAGGVREVTLLGQNVNSYGLKTPGELSFAGLLREISAIDGLERIRFTTSHPKDISPELIACFAELPKLCGHIHLPAQAGSDSILARMNRGYTRQEYLEKVAALRAARPEILITGDIIVGFPGETEADFLQTLSLMEEVRYTDIFSFAYSPRPETAAASLGDRIMRKETTERLERVQGLQRDMTIERHAGFVGTCQAVLVEGMSKRGDQLYGRTDGNLIVNFAGNPSLAGSLVDVRITRGYPNSLLGELAVFQ,soluble
14,MIYAYIRVSTDKQTVENQRFEINRFAKQRDFQIDVWVEETVSGTRSAKDRKLGVLLKRIKKGDTLIVSEISRLGRRLMEVMSILNACMLKNVILLTVKEKYELGNNIQSQILAFAFSLSAQIERDLISQRTREGLARRIASGQKLGRPMGGHNSKYKLTGKEEKIKAMLEAGTSKAEMARKLKVSRNTLAAFLNRNRTGIPSN,not soluble
15,MATAPYGVRLLVGAATVAVEETMKLPRTILMYPMTLASQAAHVVMRFQQGLAELVIKGDNTLETLFPPKDEKPEWATFDEDLPDALEGTSIPLLGLSDASEAKNDDRRSDGRFALYSVSDTPETTTASRSADRSTNPKTAKHPKSAAKPTVPTPAVAAELDYPALTLAQLRARLHTLDVPELEALLAYEQATKARAPFQTLLANRITRATAK,not soluble
16,GSMTHYDVVVLGAGPGGYVAAIRAAQLGLSTAIVEPKYWGGVCLNVGCIPSKALLRNAELVHIFTKDAKAFGISGEVTFDYGIAYDRSRKVAEGRVAGVHFLMKKNKITEIHGYGTFADANTLLVDLNDGGTESVTFDNAIIATGSSTRLVPGTSLSANVVTYEEQILSRELPKSIIIAGAGAIGMEFGYVLKNYGVDVTIVEFLPRALPNEDADVSKEIEKQFKKLGVTILTATKVESIADGGSQVTVTVTKDGVAQELKAEKVLQAIGFAPNVEGYGLDKAGVALTDRKAIGVDDYMRTNVGHIYAIGDVNGLLQLAHVAEAQGVVAAETIAGAETLTLGDHRMLPRATFCQPNVASFGLTEQQARNEGYDVVVAKFPFTANAKAHGVGDPSGFVKLVADAKHGELLGGHLVGHDVAELLPELTLAQRWDLTASELARNVHTHPTMSEALQECFHGLVGHMINF,soluble
17,MEAEPLETEQDEWRKERMRVLDEWCEIELKGADALKMDVTREPGSPTVAVAPETSLQDLYPLLIATSSSNAPPSATPTDDVTDPEVQVVSRESIDNRSTFNRIIDVCLCRPVKSQMGPKAYTDKTLILKLAQIPYDHENGTHWLLLSDYFNNVSRSLMTSSEYSHVTNPSRVGAHWVTVGFQSATPHTDFRGCGVLGLLQMHTFTQRVPANLLRAIVLLATTEPNDFPLAVVSINITSILLTQLKKGALDNFGNEIEGLYPFFSALHASAMCRFCSIYKSQKCTLANTQTIFSEITRQLEKSPLSLIMLLNPTNDELINTLL,not soluble
18,MSLNESEEKNSNSTYSFFFKNLSVTGFYEENCLFMTVKELFDNSIDALCNNKGDENIDEEGQGTQEKKIEIEIKEYGINSSFYEIICRDNGEGIEVKDLEKISEMFLTSKEKCITSGKFGIGLKTILLYSFKTAYGFLHIKIKVKKNKIWDFILVLDKNLNHTFVQNFKEYIDDKWEWTIEISVILKINNNYISDKKIHSYIKLFLLWKKNITVKYIHNPNGEQSIYTYSSHSDTSEENILSMLANNSINMIFKKDFLTSYNYDVNMYVNVRKSEKIIPYEHGHNIGFLFLIRYVNSMPLLRTSSSDCSITVDFRNFLKYYGPQFGIELPTIESRDEMILEELALPSCFDDLNKVANIFPVKRSEKSTWNIMIIGIDVRGRDISFVSLRKNCIKEGEYLSSLIKKCSINLYNNIKRELPQEFENLSDYQLRQALNIYGVQLASSLSKIILKGHEEFKNKIFFLLNEKKKIKNNSTCEKEEYNNKFTSYDENILTRELYSHIKEKIMLNEKTYENPKAKIQLTGDSNKSYYKNEGHHHHHH,not soluble
19,MKIGIIAAMPEELAYLVQHLDNTQEQVVLGNTYHTGTIASHEVVLVESGIGKVMSAMSVAILADHFQVDALINTGSAGAVAEGIAVGDVVIADKLAYHDVDVTAFGYAYGQMAQQPLYFESDKTFVAQIQESLSQLDQNWHLGLIATGDSFVAGNDKIEAIKSHFPEVLAVEMEGAAIAQAAHTLNLPVLVIRAMSDNANHEANIFFDEFIIEAGRRSAQVLLAFLKALD,soluble

# From the DeepSol protein solubility set
